± gives the standard error. Fewer inactive variants are shown than the library holds.
B1: glmS ribozyme (parent)
chain: AUAAAAGCGCCAGAACUACAGAAAUGUAGUUGACGAGGAGGAGGUUUAUCGAAUUUUCGGCGGAUGCCUCCAAA

Legend:
Details in all cases: with glucosamine-6-phosphate
glucosamine-6-phosphate [1] = variants of: B1; test: self-cleavage kobs at 40 uM GlcN6P; higher = faster cleavage; RNA array
How it was run: (§1)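 Barcoded ribozyme variants on sequenced MiSeq chips were transcribed in situ by E. coli RNA polymerase and followed at 37 °C through a hybridised Cy3 probe. Glucosamine-6-phosphate at 40 μM to 10 mM in HEPES/KCl/Mg(OAc)2 buffer was flowed in, and tiles were imaged over ~14 h. Signals were normalised to baseline and to non-cleaving reference variants, and per-tile medians were fit to one- or two-exponential decays to give kobs. Weighted Michaelis–Menten fits across concentrations gave kcat and KM.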

glucosamine-6-phosphate [2] = variants of: B1; test: self-cleavage kobs at 2500 uM GlcN6P; higher = faster cleavage; RNA array
How it was run: as §1

glucosamine-6-phosphate [3] = variants of: B1; test: self-cleavage kobs at 10000 uM GlcN6P; higher = faster cleavage; RNA array
How it was run: as §1

glucosamine-6-phosphate [4] = variants of: B1; test: self-cleavage kobs at 160 uM GlcN6P; higher = faster cleavage; RNA array
How it was run: as §1

glucosamine-6-phosphate [5] = variants of: B1; test: self-cleavage kobs at 640 uM GlcN6P; higher = faster cleavage; RNA array
How it was run: as §1

Variant	self-cleavage kobs at 40 uM GlcN6P (glucosamine-6-phosphate [1])	self-cleavage kobs at 2500 uM GlcN6P (glucosamine-6-phosphate [2])	self-cleavage kobs at 10000 uM GlcN6P (glucosamine-6-phosphate [3])	self-cleavage kobs at 160 uM GlcN6P (glucosamine-6-phosphate [4])	self-cleavage kobs at 640 uM GlcN6P (glucosamine-6-phosphate [5])
C11U G32C C58U C70G	4.92e-05 ± 2.1e-05 s⁻¹	–	–	–	–
G40A U46G	4.29e-05 ± 1.2e-05 s⁻¹	0.000841 ± 0.00023 s⁻¹	0.00152 ± 0.00029 s⁻¹	–	–
A14U A15C A33C C70G	< 1e-05 s⁻¹	–	–	–	–
C16A G43A	< 1e-05 s⁻¹	–	–	–	–
A6G C10U A39U	< 1e-05 s⁻¹	< 1e-05 s⁻¹	< 1e-05 s⁻¹	< 1e-05 s⁻¹	–
G63U U65G	< 1e-05 s⁻¹	< 1e-05 s⁻¹	< 1e-05 s⁻¹	< 1e-05 s⁻¹	< 1e-05 s⁻¹
C16U G38A	< 1e-05 s⁻¹	< 1e-05 s⁻¹	–	< 1e-05 s⁻¹	< 1e-05 s⁻¹
C11U A36G C58U C67G	4.33e-05 ± 2.1e-05 s⁻¹	–	–	–	–
A6C G35U	< 1e-05 s⁻¹	< 1e-05 s⁻¹	< 1e-05 s⁻¹	< 1e-05 s⁻¹	–
G13A C50G U55G U57G G62U	8.98e-05 ± 2.1e-05 s⁻¹	–	5.32e-05 ± 1.5e-05 s⁻¹	–	–
G40C G41A C70U	8.35e-05 ± 2.8e-05 s⁻¹	0.000861 ± 0.00023 s⁻¹	–	–	–
A36C G37C G41C C50A A52C C71U	< 1e-05 s⁻¹	–	–	–	–
U49G G66C	< 1e-05 s⁻¹	< 1e-05 s⁻¹	–	–	–
A36G U54C	< 1e-05 s⁻¹	–	–	< 1e-05 s⁻¹	–
A36U G43U C50U	< 1e-05 s⁻¹	–	–	–	–
A6G G44U	< 1e-05 s⁻¹	< 1e-05 s⁻¹	< 1e-05 s⁻¹	–	< 1e-05 s⁻¹
G35A A42G	< 1e-05 s⁻¹	< 1e-05 s⁻¹	< 1e-05 s⁻¹	< 1e-05 s⁻¹	< 1e-05 s⁻¹
C8G C16U	< 1e-05 s⁻¹	< 1e-05 s⁻¹	< 1e-05 s⁻¹	< 1e-05 s⁻¹	< 1e-05 s⁻¹
G13A G62U C70U	< 1e-05 s⁻¹	–	< 1e-05 s⁻¹	–	–
G40A G62U	< 1e-05 s⁻¹	–	< 1e-05 s⁻¹	< 1e-05 s⁻¹	< 1e-05 s⁻¹
C34U A64C	< 1e-05 s⁻¹	–	< 1e-05 s⁻¹	< 1e-05 s⁻¹	–
G40C A64C	< 1e-05 s⁻¹	–	–	< 1e-05 s⁻¹	–
G9C C11A	< 1e-05 s⁻¹	–	–	< 1e-05 s⁻¹	–
G13C A48U C70G	< 1e-05 s⁻¹	–	< 1e-05 s⁻¹	–	–
C11A A36C	< 1e-05 s⁻¹	< 1e-05 s⁻¹	< 1e-05 s⁻¹	< 1e-05 s⁻¹	< 1e-05 s⁻¹

Variant	self-cleavage kobs at 40 uM GlcN6P (glucosamine-6-phosphate [1])	self-cleavage kobs at 2500 uM GlcN6P (glucosamine-6-phosphate [2])	self-cleavage kobs at 10000 uM GlcN6P (glucosamine-6-phosphate [3])	self-cleavage kobs at 160 uM GlcN6P (glucosamine-6-phosphate [4])	self-cleavage kobs at 640 uM GlcN6P (glucosamine-6-phosphate [5])
A12G G32A A33U C70G	< 1e-05 s⁻¹	–	–	< 1e-05 s⁻¹	< 1e-05 s⁻¹
G9A A52U	< 1e-05 s⁻¹	< 1e-05 s⁻¹	< 1e-05 s⁻¹	< 1e-05 s⁻¹	< 1e-05 s⁻¹
A33C U55C U57C	< 1e-05 s⁻¹	–	< 1e-05 s⁻¹	–	–
A6G C16G	< 1e-05 s⁻¹	–	3.38e-05 ± 8.1e-06 s⁻¹	< 1e-05 s⁻¹	< 1e-05 s⁻¹
A14G A36U G43U	< 1e-05 s⁻¹	–	< 1e-05 s⁻¹	–	–
G7U A15G	< 1e-05 s⁻¹	< 1e-05 s⁻¹	< 1e-05 s⁻¹	< 1e-05 s⁻¹	< 1e-05 s⁻¹
A39U G66U C67U	3.54e-05 ± 1.2e-05 s⁻¹	–	–	–	–
A12U G40U G41C	< 1e-05 s⁻¹	–	–	–	–
U31G A53G	0.000276 ± 4.7e-05 s⁻¹	0.00382 ± 0.00096 s⁻¹	0.02 ± 0.0035 s⁻¹	0.000661 ± 0.00018 s⁻¹	–
U46C G63U C70A	< 1e-05 s⁻¹	–	–	–	–
U54G G62U	< 1e-05 s⁻¹	< 1e-05 s⁻¹	< 1e-05 s⁻¹	< 1e-05 s⁻¹	< 1e-05 s⁻¹
U47G A48U A52C	< 1e-05 s⁻¹	–	< 1e-05 s⁻¹	–	–
A33U U46A U47G	< 1e-05 s⁻¹	–	–	–	–
G9A A15U G63U	< 1e-05 s⁻¹	–	–	–	–
C11A G32A A39U	< 1e-05 s⁻¹	–	–	–	< 1e-05 s⁻¹
C16U C34A A39U A52U C70A	< 1e-05 s⁻¹	–	–	–	< 1e-05 s⁻¹
C11G C16A A33U C58G	< 1e-05 s⁻¹	–	–	–	–
A14G A39G	0.004 ± 0.00057 s⁻¹	–	0.138 ± 0.052 s⁻¹	0.00304 ± 0.00096 s⁻¹	0.0236 ± 0.0054 s⁻¹
G29A U56A G63C	< 1e-05 s⁻¹	–	–	–	–
U47C A48U C70U	< 1e-05 s⁻¹	–	0.00044 ± 9.8e-05 s⁻¹	–	3.27e-05 ± 1.2e-05 s⁻¹
G7U G37C A39C G62C	< 1e-05 s⁻¹	–	–	–	–
C10U G35U C67U	< 1e-05 s⁻¹	–	–	–	–
U46G U54C C67U	9.53e-05 ± 1.8e-05 s⁻¹	–	0.00207 ± 0.00047 s⁻¹	–	–
G9A C34A G44U U54A C68A	< 1e-05 s⁻¹	–	–	–	–
A15G A64G	0.000819 ± 0.00013 s⁻¹	0.00698 ± 0.0018 s⁻¹	0.0604 ± 0.017 s⁻¹	0.00196 ± 0.00048 s⁻¹	0.0063 ± 0.0012 s⁻¹

— the supplement of paper PMC7125110
